Measurements taken from patent publication US20060110801A1 (WISCONSIN ALUMNI RESEARCH FOUNDATION, published 2006).

Biological target: GST (UniProt P08515 1-218 = GST)
Test: pull-down on glutathione sepharose, Western blot with anti-T7

Chain of GST (P08515 whole entry): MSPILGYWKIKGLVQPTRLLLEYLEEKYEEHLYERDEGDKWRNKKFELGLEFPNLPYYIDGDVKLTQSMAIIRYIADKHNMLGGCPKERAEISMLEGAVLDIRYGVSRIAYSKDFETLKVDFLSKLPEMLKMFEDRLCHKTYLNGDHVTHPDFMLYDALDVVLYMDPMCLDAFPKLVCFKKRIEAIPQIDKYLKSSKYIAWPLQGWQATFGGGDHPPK

B1: T7-ATR41-227 (fusion protein having a hexahistidine tag, a T7 tag, and amino acids 41 to 227 of ATR) (receptor)
chain: GGFDLYFILDKSGSVLHHWNEIYYFVEQLAHKFISPQLRMSFIVFSTRGTTLMKLTEDREQIRQGLEELQKVLPGGDTYMHEGFERASEQIYYENRQGYRTASVIIALTDGELHEDLFFYSEREANRSRDLGAIVYCVGVKDFNETQLARIADSKDHVFPVNDGFQALQGIIHSILKKSCIEILAAE
notes: also called the I domain; extracellular fragment of ATR
binding result: no binding
